These results are taken from US20180258140A1, “NEW DODECAPEPTIDES AND MICROCAPSULES FUNCTIONALISED WITH THEM TARGETED TO FIBROBLASTS” (Infinitec Activos, S.L., priority 2015, published 2018).

*: point of attachment. Palmitoyl = CCCCCCCCCCCCCCCC(=O)*

Common to all, as to experiment: cell-based or functional assay
The target of assay [1] is human FGFR1 kinase (human, UniProt P11362 398-822, limits assumed).
The target of assay [2] is FGFR3 Kinase (UniProt P22607 436-806).
The target in assay [3] is FGFR4 Kinase (UniProt P22455 460-802, limits assumed).
Chain of FGFR4 Kinase (P22455 460-802 limits assumed): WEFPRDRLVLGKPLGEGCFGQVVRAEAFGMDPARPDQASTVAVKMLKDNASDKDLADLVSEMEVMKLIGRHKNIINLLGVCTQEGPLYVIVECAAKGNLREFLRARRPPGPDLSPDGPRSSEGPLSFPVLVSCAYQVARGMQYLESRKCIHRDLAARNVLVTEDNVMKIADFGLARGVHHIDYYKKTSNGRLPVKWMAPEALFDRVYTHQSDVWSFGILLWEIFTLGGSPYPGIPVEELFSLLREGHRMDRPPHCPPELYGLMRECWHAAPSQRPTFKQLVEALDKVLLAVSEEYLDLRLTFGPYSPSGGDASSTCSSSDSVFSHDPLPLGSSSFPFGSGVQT

Chain of FGFR3 Kinase (P22607 436-806 limits assumed): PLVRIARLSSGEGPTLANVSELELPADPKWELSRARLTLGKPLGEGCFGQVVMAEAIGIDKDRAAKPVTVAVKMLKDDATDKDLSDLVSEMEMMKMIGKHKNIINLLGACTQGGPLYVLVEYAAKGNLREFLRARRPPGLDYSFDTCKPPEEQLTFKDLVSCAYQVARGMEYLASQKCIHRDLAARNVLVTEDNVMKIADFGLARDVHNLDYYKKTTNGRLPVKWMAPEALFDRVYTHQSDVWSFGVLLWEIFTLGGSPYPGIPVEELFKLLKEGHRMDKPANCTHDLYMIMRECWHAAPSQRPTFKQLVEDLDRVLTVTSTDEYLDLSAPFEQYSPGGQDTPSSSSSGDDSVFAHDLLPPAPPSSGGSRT
Chain of human FGFR1 kinase (P11362 398-822 limits assumed): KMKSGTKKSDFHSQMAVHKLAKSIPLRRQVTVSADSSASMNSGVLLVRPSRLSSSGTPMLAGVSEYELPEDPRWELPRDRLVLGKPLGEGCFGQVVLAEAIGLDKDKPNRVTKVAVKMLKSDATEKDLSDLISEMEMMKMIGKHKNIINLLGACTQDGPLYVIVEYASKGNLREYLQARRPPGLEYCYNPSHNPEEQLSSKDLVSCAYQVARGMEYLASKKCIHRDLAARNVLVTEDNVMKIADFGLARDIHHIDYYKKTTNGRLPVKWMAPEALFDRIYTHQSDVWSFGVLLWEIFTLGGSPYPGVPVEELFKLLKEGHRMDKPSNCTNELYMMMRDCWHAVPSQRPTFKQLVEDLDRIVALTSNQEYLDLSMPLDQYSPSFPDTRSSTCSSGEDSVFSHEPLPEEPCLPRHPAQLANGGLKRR

B1: Peptide 3: Palm-Lys-Phe-Ala-Leu-Pro-Leu-Gly-Asn-Tyr-Lys-Lys-Pro-NH2 (peptide)
peptide: Palmitoyl-KFALPLGNYKKP-NH2
SMILES: CCCCCCCCCCCCCCCC(=O)N[C@@H](CCCCN)C(=O)N[C@@H](Cc1ccccc1)C(=O)N[C@@H](C)C(=O)N[C@@H](CC(C)C)C(=O)N1CCC[C@H]1C(=O)N[C@@H](CC(C)C)C(=O)NCC(=O)N[C@@H](CC(N)=O)C(=O)N[C@@H](Cc1ccc(O)cc1)C(=O)N[C@@H](CCCCN)C(=O)N[C@@H](CCCCN)C(=O)N1CCC[C@H]1C(N)=O
In the case of B1, in assay [1], the “FGFR1 Kinase % Inhibition” value amounted to 85%. The “FGFR3 Kinase % Inhibition” value in assay [2] turned out to be 91.9%. Besides, the “FGFR4 Kinase % Inhibition” value in assay [3] amounted to 65.9%.

B2: Peptide 5: Palm-Lys-Phe-Asn-Leu-Ala-Leu-Gly-Asn-Tyr-Lys-Lys-Pro-NH2 (peptide)
peptide: Palmitoyl-KFNLALGNYKKP-NH2
SMILES: CCCCCCCCCCCCCCCC(=O)N[C@@H](CCCCN)C(=O)N[C@@H](Cc1ccccc1)C(=O)N[C@@H](CC(N)=O)C(=O)N[C@@H](CC(C)C)C(=O)N[C@@H](C)C(=O)N[C@@H](CC(C)C)C(=O)NCC(=O)N[C@@H](CC(N)=O)C(=O)N[C@@H](Cc1ccc(O)cc1)C(=O)N[C@@H](CCCCN)C(=O)N[C@@H](CCCCN)C(=O)N1CCC[C@H]1C(N)=O
For the molecule B2, the “FGFR1 Kinase % Inhibition” value in assay [1] is 0%. Besides, the “FGFR3 Kinase % Inhibition” value in assay [2] came out at 49.6%. In assay [3], the “FGFR4 Kinase % Inhibition” value was determined as 0%.

B3: Peptide 6: Palm-Lys-Phe-Asn-Leu-Pro-Ala-Gly-Asn-Tyr-Lys-Lys-Pro-NH2 (peptide)
peptide: Palmitoyl-KFNLPAGNYKKP-NH2
SMILES: CCCCCCCCCCCCCCCC(=O)N[C@@H](CCCCN)C(=O)N[C@@H](Cc1ccccc1)C(=O)N[C@@H](CC(N)=O)C(=O)N[C@@H](CC(C)C)C(=O)N1CCC[C@H]1C(=O)N[C@@H](C)C(=O)NCC(=O)N[C@@H](CC(N)=O)C(=O)N[C@@H](Cc1ccc(O)cc1)C(=O)N[C@@H](CCCCN)C(=O)N[C@@H](CCCCN)C(=O)N1CCC[C@H]1C(N)=O
Turning to B3, the “FGFR1 Kinase % Inhibition” value in assay [1] was found to be 92.7%. Besides, in assay [2], the “FGFR3 Kinase % Inhibition” value is 78.5%. In addition, the “FGFR4 Kinase % Inhibition” value in assay [3] worked out at 69.8%.

B4: Peptide 4: Palm-Lys-Phe-Asn-Ala-Pro-Leu-Gly-Asn-Tyr-Lys-Lys-Pro-NH2 (peptide)
peptide: Palmitoyl-KFNAPLGNYKKP-NH2
SMILES: CCCCCCCCCCCCCCCC(=O)N[C@@H](CCCCN)C(=O)N[C@@H](Cc1ccccc1)C(=O)N[C@@H](CC(N)=O)C(=O)N[C@@H](C)C(=O)N1CCC[C@H]1C(=O)N[C@@H](CC(C)C)C(=O)NCC(=O)N[C@@H](CC(N)=O)C(=O)N[C@@H](Cc1ccc(O)cc1)C(=O)N[C@@H](CCCCN)C(=O)N[C@@H](CCCCN)C(=O)N1CCC[C@H]1C(N)=O
Take B4: in assay [1], the “FGFR1 Kinase % Inhibition” value was 0%. The “FGFR3 Kinase % Inhibition” value in assay [2] was found to be 60.8%. The “FGFR4 Kinase % Inhibition” value in assay [3] was found to be 0%.

B5: Peptide 11: Palm-Lys-Phe-Asn-Leu-Pro-Leu-Gly-Asn-Tyr-Lys-Ala-Pro-NH2 (peptide)
peptide: Palmitoyl-KFNLPLGNYKAP-NH2
SMILES: CCCCCCCCCCCCCCCC(=O)N[C@@H](CCCCN)C(=O)N[C@@H](Cc1ccccc1)C(=O)N[C@@H](CC(N)=O)C(=O)N[C@@H](CC(C)C)C(=O)N1CCC[C@H]1C(=O)N[C@@H](CC(C)C)C(=O)NCC(=O)N[C@@H](CC(N)=O)C(=O)N[C@@H](Cc1ccc(O)cc1)C(=O)N[C@@H](CCCCN)C(=O)N[C@@H](C)C(=O)N1CCC[C@H]1C(N)=O
For the molecule B5, the “FGFR1 Kinase % Inhibition” value in assay [1] was determined as 0%. Also, the “FGFR3 Kinase % Inhibition” value in assay [2] was 19.3%. For the same molecule, the “FGFR4 Kinase % Inhibition” value in assay [3] was determined as 0%.

B6: Peptide 7: Palm-Lys-Phe-Asn-Leu-Pro-Leu-Ala-Asn-Tyr-Lys-Lys-Pro-NH2 (peptide)
peptide: Palmitoyl-KFNLPLANYKKP-NH2
SMILES: CCCCCCCCCCCCCCCC(=O)N[C@@H](CCCCN)C(=O)N[C@@H](Cc1ccccc1)C(=O)N[C@@H](CC(N)=O)C(=O)N[C@@H](CC(C)C)C(=O)N1CCC[C@H]1C(=O)N[C@@H](CC(C)C)C(=O)N[C@@H](C)C(=O)N[C@@H](CC(N)=O)C(=O)N[C@@H](Cc1ccc(O)cc1)C(=O)N[C@@H](CCCCN)C(=O)N[C@@H](CCCCN)C(=O)N1CCC[C@H]1C(N)=O
Take B6: in assay [1], the “FGFR1 Kinase % Inhibition” value came to 0%. Moreover, the “FGFR3 Kinase % Inhibition” value in assay [2] came out at 72.9%. Also, the “FGFR4 Kinase % Inhibition” value in assay [3] was 67.9%.

B7: Peptide 10: Palm-Lys-Phe-Asn-Leu-Pro-Leu-Gly-Asn-Tyr-Ala-Lys-Pro-NH2 (peptide)
peptide: Palmitoyl-KFNLPLGNYAKP-NH2
SMILES: CCCCCCCCCCCCCCCC(=O)N[C@@H](CCCCN)C(=O)N[C@@H](Cc1ccccc1)C(=O)N[C@@H](CC(N)=O)C(=O)N[C@@H](CC(C)C)C(=O)N1CCC[C@H]1C(=O)N[C@@H](CC(C)C)C(=O)NCC(=O)N[C@@H](CC(N)=O)C(=O)N[C@@H](Cc1ccc(O)cc1)C(=O)N[C@@H](C)C(=O)N[C@@H](CCCCN)C(=O)N1CCC[C@H]1C(N)=O
On to B7, for which, in assay [1], the “FGFR1 Kinase % Inhibition” value was 0%. Moreover, the “FGFR3 Kinase % Inhibition” value in assay [2] came out at 0%. The “FGFR4 Kinase % Inhibition” value in assay [3] came to 0%.

B8: Peptide 12: Palm-Lys-Phe-Asn-Leu-Pro-Leu-Gly-Asn-Tyr-Lys-Lys-Ala-NH2 (peptide)
peptide: Palmitoyl-KFNLPLGNYKKA-NH2
SMILES: CCCCCCCCCCCCCCCC(=O)N[C@@H](CCCCN)C(=O)N[C@@H](Cc1ccccc1)C(=O)N[C@@H](CC(N)=O)C(=O)N[C@@H](CC(C)C)C(=O)N1CCC[C@H]1C(=O)N[C@@H](CC(C)C)C(=O)NCC(=O)N[C@@H](CC(N)=O)C(=O)N[C@@H](Cc1ccc(O)cc1)C(=O)N[C@@H](CCCCN)C(=O)N[C@@H](CCCCN)C(=O)N[C@@H](C)C(N)=O
In the case of B8, the “FGFR1 Kinase % Inhibition” value in assay [1] turned out to be 0%. Further, in assay [2], the “FGFR3 Kinase % Inhibition” value was 46.4%. For the same molecule, the “FGFR4 Kinase % Inhibition” value in assay [3] was 42.3%.

B9: Peptide 9: Palm-Lys-Phe-Asn-Leu-Pro-Leu-Gly-Asn-Ala-Lys-Lys-Pro-NH2 (peptide)
peptide: Palmitoyl-KFNLPLGNAKKP-NH2
SMILES: CCCCCCCCCCCCCCCC(=O)N[C@@H](CCCCN)C(=O)N[C@@H](Cc1ccccc1)C(=O)N[C@@H](CC(N)=O)C(=O)N[C@@H](CC(C)C)C(=O)N1CCC[C@H]1C(=O)N[C@@H](CC(C)C)C(=O)NCC(=O)N[C@@H](CC(N)=O)C(=O)N[C@@H](C)C(=O)N[C@@H](CCCCN)C(=O)N[C@@H](CCCCN)C(=O)N1CCC[C@H]1C(N)=O
Consider B9, for which the “FGFR1 Kinase % Inhibition” value in assay [1] came to 15.7%. In addition, the “FGFR3 Kinase % Inhibition” value in assay [2] was found to be 91.6%. Also, in assay [3], the “FGFR4 Kinase % Inhibition” value was determined as 92.5%.

B10: Peptide 8: Palm-Lys-Phe-Asn-Leu-Pro-Leu-Gly-Ala-Tyr-Lys-Lys-Pro-NH2 (peptide)
peptide: Palmitoyl-KFNLPLGAYKKP-NH2
SMILES: CCCCCCCCCCCCCCCC(=O)N[C@@H](CCCCN)C(=O)N[C@@H](Cc1ccccc1)C(=O)N[C@@H](CC(N)=O)C(=O)N[C@@H](CC(C)C)C(=O)N1CCC[C@H]1C(=O)N[C@@H](CC(C)C)C(=O)NCC(=O)N[C@@H](C)C(=O)N[C@@H](Cc1ccc(O)cc1)C(=O)N[C@@H](CCCCN)C(=O)N[C@@H](CCCCN)C(=O)N1CCC[C@H]1C(N)=O
Take B10: the “FGFR1 Kinase % Inhibition” value in assay [1] turned out to be 0%. In addition, the “FGFR3 Kinase % Inhibition” value in assay [2] was determined as 87.9%. Further, the “FGFR4 Kinase % Inhibition” value in assay [3] amounted to 89.5%.

B11: Peptide 1: Palm-Lys-Phe-Asn-Leu-Pro-Leu-Gly-Asn-Tyr-Lys-Lys-Pro-NH2 (peptide)
peptide: Palmitoyl-KFNLPLGNYKKP-NH2
SMILES: CCCCCCCCCCCCCCCC(=O)N[C@@H](CCCCN)C(=O)N[C@@H](Cc1ccccc1)C(=O)N[C@@H](CC(N)=O)C(=O)N[C@@H](CC(C)C)C(=O)N1CCC[C@H]1C(=O)N[C@@H](CC(C)C)C(=O)NCC(=O)N[C@@H](CC(N)=O)C(=O)N[C@@H](Cc1ccc(O)cc1)C(=O)N[C@@H](CCCCN)C(=O)N[C@@H](CCCCN)C(=O)N1CCC[C@H]1C(N)=O
For B11, the “FGFR1 Kinase % Inhibition” value in assay [1] stood at 0%. Further, in assay [2], the “FGFR3 Kinase % Inhibition” value stood at 75.8%. In addition, in assay [3], the “FGFR4 Kinase % Inhibition” value stood at 38.7%.
